According to PMC2654718:

Columns and labels:
MBP-VDR-LBDmt (human) [1] = assay: ITC
MBP-VDR-LBDmt (human) [2] = assay: pull-down

SRC2-3 peptide, Texas Red labeled
Kd (MBP-VDR-LBDmt (human) [1]): 285 nM | dH (MBP-VDR-LBDmt (human) [1]): -2.2 kcal/mol | stoichiometry N (MBP-VDR-LBDmt (human) [1]): 0.93

SRC2-3 peptide, unlabeled
Kd (MBP-VDR-LBDmt (human) [1]): 174 nM | dH (MBP-VDR-LBDmt (human) [1]): -6.7 kcal/mol | stoichiometry N (MBP-VDR-LBDmt (human) [1]): 1.02

SRC3-1 peptide, unlabeled
peptide concentration at which inhibition of SRC2-VDR binding was observed (MBP-VDR-LBDmt (human) [2]): > 50 µM
